Reference: patent US20180057604A1 (Genentech, published 2018)
Where “and” joins values, the source holds several entries; their conditions need not be identical. Identical values can stand only once. Like-named read-outs stand apart in the source and are kept apart here. Blank lines part the entries; values can stand above or below the binder they belong to.

Tests used:
human BACE1 ECD [1] = target: T1, human BACE1 ECD; assay: Octet, pH 5.0
T1 construct: analyte of the Octet assay (200 nM) and enzyme of the first short substrate assay; also called human BACE1 extracellular domain
T1 sequence (single chain, as listed by the source limits assumed): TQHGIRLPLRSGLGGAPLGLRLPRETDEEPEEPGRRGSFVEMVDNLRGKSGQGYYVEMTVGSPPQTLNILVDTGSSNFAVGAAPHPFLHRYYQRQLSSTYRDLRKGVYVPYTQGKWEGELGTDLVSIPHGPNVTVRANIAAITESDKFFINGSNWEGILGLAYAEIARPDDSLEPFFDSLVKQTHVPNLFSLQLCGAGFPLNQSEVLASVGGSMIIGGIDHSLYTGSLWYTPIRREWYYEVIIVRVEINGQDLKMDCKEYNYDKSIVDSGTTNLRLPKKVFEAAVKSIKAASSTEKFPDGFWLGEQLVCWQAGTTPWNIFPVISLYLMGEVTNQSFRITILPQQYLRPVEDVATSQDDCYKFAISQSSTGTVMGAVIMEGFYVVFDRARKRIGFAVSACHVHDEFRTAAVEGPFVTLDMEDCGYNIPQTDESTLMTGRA

murine BACE1 ECD [2] = target: T2, murine BACE1 ECD; assay: Octet, pH 5.0
T2 construct: analyte of the Octet assay (200 nM) and enzyme of the first short substrate assay
T2 sequence (single chain, as listed by the source limits assumed): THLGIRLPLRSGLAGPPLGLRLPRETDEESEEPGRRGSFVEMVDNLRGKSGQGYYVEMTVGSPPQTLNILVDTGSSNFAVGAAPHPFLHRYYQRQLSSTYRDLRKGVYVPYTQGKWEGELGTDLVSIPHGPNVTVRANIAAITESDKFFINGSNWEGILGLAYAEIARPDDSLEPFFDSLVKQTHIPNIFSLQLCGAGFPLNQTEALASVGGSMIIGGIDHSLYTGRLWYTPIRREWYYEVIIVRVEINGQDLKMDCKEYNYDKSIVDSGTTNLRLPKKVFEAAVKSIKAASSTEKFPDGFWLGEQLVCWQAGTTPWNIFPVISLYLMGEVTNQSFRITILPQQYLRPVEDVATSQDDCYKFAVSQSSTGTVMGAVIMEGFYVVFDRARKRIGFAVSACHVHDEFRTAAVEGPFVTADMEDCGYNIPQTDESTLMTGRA

human BACE1 ECD [3] = target: T1, human BACE1 ECD; assay: Octet, pH 7.5;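 note: antibodies captured on anti-human capture biosensor tips, dissociation followed in PBS with BSA buffer, kinetics fitted with a one-to-one binding model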
murine BACE1 ECD [4] = target: T2, murine BACE1 ECD; assay: Octet, pH 7.5;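 note: antibodies captured on anti-human capture biosensor tips, dissociation followed in PBS with BSA buffer, kinetics fitted with a one-to-one binding model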
[5] = target: T3, human BACE1 (R&D Systems) (human, UniProt P56817); assay: SPR (Biacore)
T3 construct: recombinant, commercial (R&D Systems)
T3 sequence (P56817 22-457 limits assumed): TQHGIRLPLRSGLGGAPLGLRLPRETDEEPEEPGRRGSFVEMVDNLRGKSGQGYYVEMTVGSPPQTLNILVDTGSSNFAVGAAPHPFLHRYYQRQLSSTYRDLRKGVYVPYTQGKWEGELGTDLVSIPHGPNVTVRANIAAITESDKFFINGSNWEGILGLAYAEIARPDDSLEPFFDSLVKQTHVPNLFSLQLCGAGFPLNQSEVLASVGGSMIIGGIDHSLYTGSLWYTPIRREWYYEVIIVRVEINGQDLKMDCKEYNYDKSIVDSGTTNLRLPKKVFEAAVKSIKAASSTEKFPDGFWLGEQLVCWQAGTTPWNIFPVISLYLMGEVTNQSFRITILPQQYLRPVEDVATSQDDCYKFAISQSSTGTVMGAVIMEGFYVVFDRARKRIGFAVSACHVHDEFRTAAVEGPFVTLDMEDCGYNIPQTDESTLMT

human BACE1 ECD [6] = target: T1, human BACE1 ECD; assay: cell-based or functional assay
murine BACE1 ECD [7] = target: T2, murine BACE1 ECD; assay: cell-based or functional assay
[8] = target: BACE1 (HTRF long substrate and FRET short substrate assays of Example 9D); assay: cell-based or functional assay
[9] = target: BACE1 in primary mouse cortical neurons (mouse, UniProt P56818 46-501); assay: cell-based or functional assay
BACE1 in primary mouse cortical neurons, sequence (P56818 46-501): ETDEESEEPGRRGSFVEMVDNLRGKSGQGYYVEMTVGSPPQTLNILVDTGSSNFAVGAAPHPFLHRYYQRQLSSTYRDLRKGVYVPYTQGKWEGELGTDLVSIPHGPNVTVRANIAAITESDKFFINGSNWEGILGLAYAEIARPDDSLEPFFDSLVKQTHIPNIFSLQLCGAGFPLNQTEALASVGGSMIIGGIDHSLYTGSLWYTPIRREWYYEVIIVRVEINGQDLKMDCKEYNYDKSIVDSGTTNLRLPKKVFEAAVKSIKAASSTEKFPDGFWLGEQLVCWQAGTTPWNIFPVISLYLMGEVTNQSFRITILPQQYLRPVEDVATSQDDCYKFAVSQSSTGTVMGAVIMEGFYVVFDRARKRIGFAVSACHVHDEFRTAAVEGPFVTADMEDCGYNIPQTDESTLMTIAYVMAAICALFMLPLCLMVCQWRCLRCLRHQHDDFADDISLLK

human BACE1 ECD [10] = target: T1, human BACE1 ECD; assay: Octet, pH 5.0, second run
murine BACE1 ECD [11] = target: T2, murine BACE1 ECD; assay: Octet, pH 5.0, second run
human BACE1 ECD [12] = target: T1, human BACE1 ECD; assay: Octet, pH 7.5, second run
murine BACE1 ECD [13] = target: T2, murine BACE1 ECD; assay: Octet, pH 7.5, second run
[14] = target: T3, human BACE1 (R&D Systems); assay: SPR (Biacore), second run
[15] = target: T4, human TfR extracellular domain with N-terminal His tag (human, UniProt P02786 89-760); assay: SPR, biotinylated TfR on streptavidin, bispecific injected
T4 construct: Biotinylated in some assays; also called huTfR; HuTfR

[16] = target: T5, cyno TfR extracellular domain (analogous construct to human TfR ecd) (cynomolgus monkey, UniProt Q5RDH6 87-760 (Pongo abelii entry)); assay: as above
T5 construct: also called cynoTfR ecd
T5 chain: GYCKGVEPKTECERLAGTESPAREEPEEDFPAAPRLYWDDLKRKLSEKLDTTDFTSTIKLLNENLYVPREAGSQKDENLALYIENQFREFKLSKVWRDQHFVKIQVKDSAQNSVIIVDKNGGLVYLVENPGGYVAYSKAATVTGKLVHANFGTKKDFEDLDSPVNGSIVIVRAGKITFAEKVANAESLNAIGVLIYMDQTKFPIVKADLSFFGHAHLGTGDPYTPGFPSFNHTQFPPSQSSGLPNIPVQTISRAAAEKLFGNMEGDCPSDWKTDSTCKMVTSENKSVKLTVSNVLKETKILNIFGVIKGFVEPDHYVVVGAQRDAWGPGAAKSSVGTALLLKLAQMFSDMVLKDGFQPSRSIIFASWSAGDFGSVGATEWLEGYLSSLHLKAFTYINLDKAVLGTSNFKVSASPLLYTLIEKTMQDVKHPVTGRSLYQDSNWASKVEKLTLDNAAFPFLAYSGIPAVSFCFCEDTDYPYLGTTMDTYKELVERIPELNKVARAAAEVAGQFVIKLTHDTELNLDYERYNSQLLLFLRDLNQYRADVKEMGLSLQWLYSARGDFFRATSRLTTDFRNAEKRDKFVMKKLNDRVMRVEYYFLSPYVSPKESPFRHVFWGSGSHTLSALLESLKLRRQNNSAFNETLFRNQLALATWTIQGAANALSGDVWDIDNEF

[17] = target: T4, human TfR extracellular domain with …; assay: SPR, Fab
[18] = target: T5, cyno TfR extracellular domain …; assay: SPR, Fab
[19] = target: T5, cyno TfR extracellular domain …; assay: SPR, KD on cyno TfR over KD on human TfR
[20] = target: T5, cyno TfR extracellular domain …; assay: SPR, KD on cyno TfR over KD on human TfR
[21] = target: T5, cyno TfR extracellular domain …; assay: SPR, KD on cyno TfR over KD on human TfR
[22] = target: T4, human TfR extracellular domain with …; assay: SPR, TfR captured by anti-His, Fab injected;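 for KD: single cycle kinetics with a Fab dilution series, fitted by a one-to-one Langmuir model or a steady state model, KD taken as koff over kon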
[23] = target: T5, cyno TfR extracellular domain …; assay: SPR, TfR captured by anti-His, Fab injected;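 for KD: single cycle kinetics with a Fab dilution series, fitted by a one-to-one Langmuir model or a steady state model, KD taken as koff over kon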
[24] = target: T4, human TfR extracellular domain with …; assay: SPR, TfR captured by anti-His, Fab injected; remark: listed apart in the source;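 for KD: single cycle kinetics with a Fab dilution series, fitted by a one-to-one Langmuir model or a steady state model, KD taken as koff over kon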
[25] = target: T5, cyno TfR extracellular domain …; assay: SPR, TfR captured by anti-His, Fab injected;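 for KD: single cycle kinetics with a Fab dilution series, fitted by a one-to-one Langmuir model or a steady state model, KD taken as koff over kon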
[26] = target: T4, human TfR extracellular domain with …; assay: SPR, TfR captured by anti-His, Fab injected; remark: listed apart in the source
[27] = target: T5, cyno TfR extracellular domain …; assay: SPR, TfR captured by anti-His, Fab injected
[28] = target: T4, human TfR extracellular domain with …; assay: SPR, IgG;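 note: His-tagged TfR captured via immobilized anti-His antibody on a CM5 chip, antibody injected in 3-fold dilution series by single cycle kinetics, 1:1 Langmuir or steady-state fit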
[29] = target: T5, cyno TfR extracellular domain …; assay: SPR, IgG;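 note: His-tagged TfR captured via immobilized anti-His antibody on a CM5 chip, antibody injected in 3-fold dilution series by single cycle kinetics, 1:1 Langmuir or steady-state fit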
[30] = target: T4, human TfR extracellular domain with …; assay: ELISA, IgG
[31] = target: T5, cyno TfR extracellular domain …; assay: ELISA, IgG
[32] = target: T4, human TfR extracellular domain with …; assay: SPR SCK 1:1 fit, IgG
[33] = target: T5, cyno TfR extracellular domain …; assay: SPR SCK 1:1 fit, IgG
[34] = target: T4, human TfR extracellular domain with …; assay: ELISA, TfR-coated plate, IgG
[35] = target: T5, cyno TfR extracellular domain …; assay: ELISA, TfR-coated plate, IgG
[36] = target: T4, human TfR extracellular domain with …; assay: ELISA, immobilized huTfR, with and without 6.3 uM holo-Tf
[37] = target: TfR (species not stated, Table 15); assay: SPR, Fab

- Kd (human BACE1 ECD [1]): 1.4 nM
- Kd (murine BACE1 ECD [2]): 2 nM
- Kd (human BACE1 ECD [3]): 0.92 nM
- Kd (murine BACE1 ECD [4]): 1.3 nM
- Kd [5]: 2.62 nM
- % inhibition of BACE1 activity, short FRET substrate (human BACE1 ECD [6]): -102%
- % inhibition of BACE1 activity, short FRET substrate (murine BACE1 ECD [7]): -243%
- EC50, FRET short substrate [8]: 0.478 nM
- EC50, HTRF long substrate [8]: 7.76 nM
- IC50, Abeta x-40 in mouse cortical neurons [9]: 4.56 nM
- IC50, Abeta x-40 in mouse cortical neurons (5884*, second run) [9]: 3.51 nM
- maximal % inhibition of Abeta x-40 [9]: 83%
- Kd (human BACE1 ECD [10]): 0.86 nM
- Kd (murine BACE1 ECD [11]): 1.3 nM
- Kd (human BACE1 ECD [12]): 0.46 nM
- Kd (murine BACE1 ECD [13]): 0.49 nM
- Kd [14]: 5.23 nM
B1: 5884 (antibody, V domains shown)
VH: QVQLVQSGAEVKKPGSSVKVSCKASGGTFSGYGISWVRQAPGQGLEWMGNIIPGFGTANYAQKFQGRVTITADESTSTAYMELSSLRSEDTAVYYCARSGGTKYGMLDVWGQGTMVTVSS
VL: EIVMTQSPATLSVSPGERATLSCRASQSVSSNLAWYQQKPGQAPRLLIYGASTRATGIPARFSGSGSGTEFTLTISSLQSEDFAVYYCQQLILWPPRTFGGGTKVEIK
notes: anti-BACE1 IgG

- Kd [15]: 9 nM
- Kd [16]: 23.7 nM
B2: Anti-TfR1/6266.hIgG1.N297G (bispecific antibody, V domains shown)
VH 1: EVQLVQSGAEVKKPGASVKVSCKASGYTFTSYWMHWVRQAPGQRLEWIGEINPTNGRTNYIEKFKSRATLTVDKSASTAYMELSSLRSEDTAVYYCARGTRAYHYWGQGTMVTVSS
VL 1: DIQMTQSPSSLSASVGDRVTITCRASDNLYSNLAWYQQKPGKSPKLLVYDATNLADGVPSRFSGSGSGTDYTLTISSLQPEDFATYYCQHFWGTPLTFGQGTKVEIK
VH 2: EVQLVQSGAEVKKPGSSVKVSCKASGGTLSGYGVSWVRQAPGQGLEWMGNIIPGFGTANYAQKFQGRVTITADESTSTAYMELSSLRSEDTAVYYCARSGGTKYGMLDVWGQGTMVTVSS
VL 2: EIVMTQSPATLSVSPGERATLSCRASQSVSSNLAWYQQKPGQAPRLLIYGASTRATGIPARFSGSGSGTEFTLTISSLQSEDFAVYYCQQLILWPPRTFGGGTKVEIK
notes: Knob-in-hole human IgG1 with N297G

- Kd [17]: 4.7 nM
- Kd [18]: 16 nM
- Cy/hu ratio [19]: 3.4
- Cy/hu ratio [20]: 4
- Cyno/human ratio [21]: 4
- Kd [22]: 4.7 nM
- koff [22]: 0.00406 s⁻¹ and 0.00364 s⁻¹
- kon [22]: 456000 M⁻¹ s⁻¹ and 776000 M⁻¹ s⁻¹
- koff [23]: 0.0218 s⁻¹
- kon [23]: 1.41e+06 M⁻¹ s⁻¹
- koff [24]: 0.00474 s⁻¹
- kon [24]: 674000 M⁻¹ s⁻¹
- koff [25]: 0.0127 s⁻¹
- kon [25]: 451000 M⁻¹ s⁻¹
- koff [26]: 0.00474 s⁻¹
- kon [26]: 674000 M⁻¹ s⁻¹
- koff [27]: 0.0127 s⁻¹
- kon [27]: 451000 M⁻¹ s⁻¹
B3: Hu15G11.v5.Fab (Fab, V domains shown)
VH: EVQLVQSGAEVKKPGASVKVSCKASGYTFTSYWMHWVRQAPGQRLEWIGEINPTNGRTNYIEKFKSRATLTVDKSASTAYMELSSLRSEDTAVYYCARGTRAYHYWGQGTMVTVSS
VL: DIQMTQSPSSLSASVGDRVTITCRASDNLYSNLAWYQQKPGKSPKLLVYDATNLADGVPSRFSGSGSGTDYTLTISSLQPEDFATYYCQHFWGTPLTFGQGTKVEIK
notes: Fab

- Kd [28]: 3.33 nM
- Kd [29]: 11.8 nM
- EC50 [30]: 16 ng/mL
- EC50 [31]: 20 ng/mL
- Kd [32]: 3.3 nM
- Kd [33]: 12 nM
- EC50 [34]: 0.8 ng/mL
- EC50 [35]: 1.8 ng/mL
- EC50 (read off the curve) [36]: ~5 ng/mL
B4: hu15G11.v5 IgG (antibody, V domains shown)
VH: EVQLVQSGAEVKKPGASVKVSCKASGYTFTSYWMHWVRQAPGQRLEWIGEINPTNGRTNYIEKFKSRATLTVDKSASTAYMELSSLRSEDTAVYYCARGTRAYHYWGQGTMVTVSS
VL: DIQMTQSPSSLSASVGDRVTITCRASDNLYSNLAWYQQKPGKSPKLLVYDATNLADGVPSRFSGSGSGTDYTLTISSLQPEDFATYYCQHFWGTPLTFGQGTKVEIK
notes: Human IgG (detected with anti-human Fc gamma); also called humanized 15G11.v5

- Kd [37]: 55 nM
B5: Hu15G11.HC52A Fab (Fab, V domains shown)
VH: EVQLVQSGAEVKKPGASVKVSCKASGYTFTSYWMHWVRQAPGQRLEWIGEIAPTNGRTNYIEKFKSRATLTVDKSASTAYMELSSLRSEDTAVYYCARGTRAYHYWGQGTMVTVSS
VL: DIQMTQSPSSLSASVGDRVTITCRASDNLYSNLAWYQQKPGKSPKLLVYDATNLADGVPSRFSGSGSGTDYTLTISSLQPEDFATYYCQHFWGTPLTFGQGTKVEIK
notes: Fab; also called antiTfR.52A.Fab; 15G11.52A Fab
